Data reported in the supplement of paper PMC10126150.
± gives the standard deviation of the averaged measurements.

Tested on: ATP
Assay: switch fluorescence ratio, 500 uM ATP over buffer (Cy3 cluster intensity, sum of 5 cycles each) (fold (ratio)); higher = stronger signal-on switching upon ATP binding; sequences stand for … in TCGTCGGCAGCGTCAGATGTGTATAAGAGACAGTTTTTTTTTTTTTTTTTTTTTTTTT…TC
Conditions: aptamer strand: ATP DNA aptamer (quencher-CACCTGGGGGAGTATTGCGGAGGAAGG + anchor), 100 nM annealed; ATP concentration: 500 uM
How it was run: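 Values give the fluorescence ratio for each switch-domain sequence, averaged from per-cluster ratios of summed target-cycle to summed buffer-cycle Cy3 intensity. The Cy3-labelled switching-strand clusters sat on a modified Illumina MiSeq flow-cell, were annealed to 100 nM quencher-labelled ATP aptamer, and were imaged in selection buffer, then after 15 min with 500 uM ATP at 22 °C. Five cycles ran with NaOH stripping and re-annealing between them, and clusters outside 100-1000 RFU were excluded.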
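Also: ATP exposure 15 min at 22 °C before imaging.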

TTGTGAGGTT gave a switch fluorescence ratio of 1.06 ± 0.088.
With TATAGATTGG the switch fluorescence ratio was 0.985 ± 0.019.
For CGTAGGGGCT, the switch fluorescence ratio was 1 ± 0.011.
GGCGGGTAAT was tested, and the switch fluorescence ratio was 1.04 ± 0.09.
For CAGGGGGGGC, the switch fluorescence ratio was 1.01 ± 0.026.
Sequence TTGGCCTTCC has a switch fluorescence ratio of 2.19 ± 0.74.
TATTTATAGC showed a switch fluorescence ratio of 1.02 ± 0.013.
GCTGGGTTTC was tested, and the switch fluorescence ratio was 0.996 ± 0.02.
For GTCCGGATGG, the switch fluorescence ratio was 1.02 ± 0.011.
In the case of TGGGCCGCTT, the switch fluorescence ratio is reported as 1.04 ± 0.028.
For GTTTTTACGA, the switch fluorescence ratio was 1.03 ± 0.027.
GCAAGTAGAG was tested, and the switch fluorescence ratio was 1.0067 ± 0.001.
For ATGCATTTGT, the switch fluorescence ratio was 1.01 ± 0.031.
Sequence GGAAGGGAAC has a switch fluorescence ratio of 0.988 ± 0.033.
Sequence ATTGAACGTT has a switch fluorescence ratio of 0.979 ± 0.015.
AATGAATTCG gave a switch fluorescence ratio of 1 ± 0.031.
TGCCATAGG gave a switch fluorescence ratio of 1.008 ± 0.0032.
CGTTGCGCGT was tested, and the switch fluorescence ratio was 0.993 ± 0.037.
In the case of CCTTAGGTTT, the switch fluorescence ratio is reported as 1.002 ± 0.0011.
Work on GCGCTTACTA yielded a switch fluorescence ratio of 1.31 ± 0.079.
For TATACTATGT, the switch fluorescence ratio was 1.05 ± 0.024.
CGATTGATGT was tested, and the switch fluorescence ratio was 1.02 ± 0.016.
CCGGGTCTTT was tested, and the switch fluorescence ratio was 1.002 ± 0.0064.
Sequence TTATTTAGGA has a switch fluorescence ratio of 0.989 ± 0.027.
ATCCGCTTTA was tested, and the switch fluorescence ratio was 3.28 ± 0.25.
Sequence CAATTCGTTA has a switch fluorescence ratio of 1.01 ± 0.0035.
Sequence TAATATGATT has a switch fluorescence ratio of 0.999 ± 0.029.
Work on GGTTTAATTA yielded a switch fluorescence ratio of 0.972 ± 0.03.
Work on CTTGAGGGGA yielded a switch fluorescence ratio of 0.983 ± 0.032.
ATCACGGGAT was tested, and the switch fluorescence ratio was 1.015 ± 0.0039.
GTTAGCTTGA gave a switch fluorescence ratio of 0.9966 ± 0.00037.
TAATATTCGA was tested, and the switch fluorescence ratio was 0.995 ± 0.018.
TAAAAAGAAA gave a switch fluorescence ratio of 0.983 ± 0.043.
ATTCTTTGGG showed a switch fluorescence ratio of 1.01 ± 0.02.
Sequence GACGATGCCA has a switch fluorescence ratio of 1.16 ± 0.035.
GCAATGAACC gave a switch fluorescence ratio of 1.84 ± 0.078.
TTTATATTAT showed a switch fluorescence ratio of 0.993 ± 0.043.
Work on AATGAGGGCG yielded a switch fluorescence ratio of 0.9825 ± 0.0018.
Work on GGGTGCTTTG yielded a switch fluorescence ratio of 1.02 ± 0.029.
In the case of TTGATCAGAG, the switch fluorescence ratio is reported as 1.01 ± 0.024.
TGAGCCCACG gave a switch fluorescence ratio of 1.027 ± 0.0039.
Sequence TTAGATATAT has a switch fluorescence ratio of 0.996 ± 0.036.
In the case of GGCAGACTTC, the switch fluorescence ratio is reported as 1.02 ± 0.041.
Sequence TTTCATAGCA has a switch fluorescence ratio of 1.283 ± 0.012.
In the case of GTATTTCGGC, the switch fluorescence ratio is reported as 0.994 ± 0.027.
For CCTAAGTGGG, the switch fluorescence ratio was 1.02 ± 0.034.
GTCATCGGCC was tested, and the switch fluorescence ratio was 0.996 ± 0.035.
With TGATTTGCGA the switch fluorescence ratio was 0.987 ± 0.02.
Work on TTCAGGTAAC yielded a switch fluorescence ratio of 1.054 ± 0.0022.
Sequence AGTGGACTAG has a switch fluorescence ratio of 0.989 ± 0.026.
With GGTATTAGGA the switch fluorescence ratio was 0.9669 ± 0.0076.
In the case of GCAGGAAGTC, the switch fluorescence ratio is reported as 0.994 ± 0.0039.
Sequence GATCATGCTA has a switch fluorescence ratio of 1.02 ± 0.02.
For CTCAATAGGG, the switch fluorescence ratio was 1.01 ± 0.038.
ACGTCGGGGG was tested, and the switch fluorescence ratio was 1 ± 0.021.
CCATCATTTT showed a switch fluorescence ratio of 0.99 ± 0.041.
For CTTGATAAAA, the switch fluorescence ratio was 1.01 ± 0.017.
GGTGCGTAGG showed a switch fluorescence ratio of 1 ± 0.012.
In the case of ACTGGTGTTC, the switch fluorescence ratio is reported as 1.019 ± 0.0094.
ATAATTCGTG was tested, and the switch fluorescence ratio was 1.01 ± 0.027.
GGGAGAGGGT showed a switch fluorescence ratio of 1.02 ± 0.016.
TAAGGGTCCC was tested, and the switch fluorescence ratio was 0.965 ± 0.016.
For CAGAGGGGTT, the switch fluorescence ratio was 1 ± 0.021.
Work on TGGGGGAAAA yielded a switch fluorescence ratio of 0.986 ± 0.01.
With AAGTTGAGTG the switch fluorescence ratio was 0.9472 ± 0.0088.
With CTAAAAGGCG the switch fluorescence ratio was 1.06 ± 0.04.
ATACGATGTA showed a switch fluorescence ratio of 0.986 ± 0.014.
In the case of TTTTGCGATC, the switch fluorescence ratio is reported as 1.14 ± 0.021.
ACCCAAGATT gave a switch fluorescence ratio of 1.01 ± 0.017.
GGGGTGCTAT was tested, and the switch fluorescence ratio was 1.01 ± 0.043.
For GGTGGGACAA, the switch fluorescence ratio was 0.966 ± 0.042.
For TAATACGTTG, the switch fluorescence ratio was 1.03 ± 0.012.
TGGTTTTCGG gave a switch fluorescence ratio of 0.993 ± 0.041.
In the case of TGAAAAAGG, the switch fluorescence ratio is reported as 0.982 ± 0.019.
TTTCGTAAGA showed a switch fluorescence ratio of 0.995 ± 0.016.
In the case of AGAGATATTT, the switch fluorescence ratio is reported as 0.992 ± 0.029.
In the case of CGAGTAGTAG, the switch fluorescence ratio is reported as 1.03 ± 0.059.
Work on GTTCCGGCGT yielded a switch fluorescence ratio of 1.21 ± 0.25.
TCGTGAACCC showed a switch fluorescence ratio of 1.01 ± 0.023.
TCCCATGTTT was tested, and the switch fluorescence ratio was 0.963 ± 0.032.
With GGTTGGATTA the switch fluorescence ratio was 0.9787 ± 0.00083.
GCTGGTGGGT was tested, and the switch fluorescence ratio was 0.988 ± 0.012.
Sequence CTATTAGGGC has a switch fluorescence ratio of 1.04 ± 0.0026.
Work on AGGTTGGGTA yielded a switch fluorescence ratio of 0.979 ± 0.015.
For GCAACGTCAA, the switch fluorescence ratio was 1.07 ± 0.076.
For CAAACAGTCG, the switch fluorescence ratio was 1.01 ± 0.042.
ACGTGATTTG showed a switch fluorescence ratio of 1.04 ± 0.025.
For CATACCCTTG, the switch fluorescence ratio was 1.01 ± 0.037.
AATGGGGATG gave a switch fluorescence ratio of 0.998 ± 0.058.
In the case of AGTTTACTGG, the switch fluorescence ratio is reported as 0.9626 ± 0.0022.
TGGGGGGGG was tested, and the switch fluorescence ratio was 1.01 ± 0.05.
TTTTTTCCG gave a switch fluorescence ratio of 1.08 ± 0.1.
For TGTAAGACCA, the switch fluorescence ratio was 1.01 ± 0.012.
For GTTTCGGTTT, the switch fluorescence ratio was 1.1 ± 0.096.
Work on TGTTTTCTTT yielded a switch fluorescence ratio of 0.987 ± 0.019.
TTAATTGGGT gave a switch fluorescence ratio of 1 ± 0.028.
Sequence CGTTGGGCTG has a switch fluorescence ratio of 1.02 ± 0.038.
GACATCAGAG gave a switch fluorescence ratio of 1.02 ± 0.053.
Work on TACCGGGTTT yielded a switch fluorescence ratio of 0.9914 ± 0.0059.
TTTATTCCTT was tested, and the switch fluorescence ratio was 1.02 ± 0.018.
GCGCCCATGA showed a switch fluorescence ratio of 0.982 ± 0.043.
For GGGTTCAAAG, the switch fluorescence ratio was 0.9818 ± 0.006.
Sequence TTGACTGGAA has a switch fluorescence ratio of 1.02 ± 0.011.
In the case of TTAAGAAGAC, the switch fluorescence ratio is reported as 1.04 ± 0.018.
With GTGATTTGGT the switch fluorescence ratio was 0.995 ± 0.019.
With TTGGGCTCTG the switch fluorescence ratio was 0.988 ± 0.018.
In the case of AAATACCGGC, the switch fluorescence ratio is reported as 1.1 ± 0.16.
TTTATGGCAT was tested, and the switch fluorescence ratio was 1.02 ± 0.027.
CGTGATTTGA was tested, and the switch fluorescence ratio was 0.986 ± 0.014.
In the case of GTTGTAAGG, the switch fluorescence ratio is reported as 1.02 ± 0.025.
Sequence TACGGCGTAC has a switch fluorescence ratio of 1.08 ± 0.051.
AGCCTATTGT showed a switch fluorescence ratio of 0.972 ± 0.035.
ATACCATGGT showed a switch fluorescence ratio of 0.992 ± 0.053.
Sequence CGGTATCCGT has a switch fluorescence ratio of 0.978 ± 0.062.
Work on TAATCGGCTC yielded a switch fluorescence ratio of 1 ± 0.03.
In the case of GAGTTTCAGT, the switch fluorescence ratio is reported as 1.04 ± 0.073.
In the case of GAAGGGGTAC, the switch fluorescence ratio is reported as 1.16 ± 0.15.
For TGAAGTTCTT, the switch fluorescence ratio was 0.965 ± 0.011.
In the case of ATGCTATCGT, the switch fluorescence ratio is reported as 1.02 ± 0.014.
Sequence TCAAGGGGGT has a switch fluorescence ratio of 1.04 ± 0.097.
In the case of GGCAGTGTGC, the switch fluorescence ratio is reported as 0.99 ± 0.022.
Work on TGAGATTTGT yielded a switch fluorescence ratio of 1.06 ± 0.12.
With TATCTAAAAC the switch fluorescence ratio was 1.001 ± 0.0032.
TCGAATATGT gave a switch fluorescence ratio of 0.986 ± 0.025.
AAAGAGGTAG was tested, and the switch fluorescence ratio was 0.9983 ± 0.0024.
Work on AGTCATTCTC yielded a switch fluorescence ratio of 0.9841 ± 0.003.
TGAATTTAGT gave a switch fluorescence ratio of 0.9729 ± 0.0089.
For TAAGGCTCGG, the switch fluorescence ratio was 0.994 ± 0.02.
With GTCAGTCTGA the switch fluorescence ratio was 0.9805 ± 0.003.
Work on ACGGAGGGGT yielded a switch fluorescence ratio of 1.14 ± 0.13.
Work on GGGGTTCTGA yielded a switch fluorescence ratio of 0.974 ± 0.032.
CATTGCAA was tested, and the switch fluorescence ratio was 1 ± 0.085.
Sequence CACTTTACTT has a switch fluorescence ratio of 1.28 ± 0.072.
CTCATAGTAG showed a switch fluorescence ratio of 0.988 ± 0.016.
CTGATGTACG gave a switch fluorescence ratio of 1.06 ± 0.12.
For ACATAAAAGG, the switch fluorescence ratio was 0.994 ± 0.021.
AAAGGCCGGA showed a switch fluorescence ratio of 1.03 ± 0.041.
Sequence GGAAGATACG has a switch fluorescence ratio of 1.03 ± 0.015.
ATGATGAGTT showed a switch fluorescence ratio of 0.986 ± 0.01.
Work on ACGTTTATGT yielded a switch fluorescence ratio of 1.02 ± 0.02.
Sequence TTTAGCCATT has a switch fluorescence ratio of 0.992 ± 0.012.
TTATAGGTAT was tested, and the switch fluorescence ratio was 0.9803 ± 0.0054.
Sequence ATACATGTAG has a switch fluorescence ratio of 0.9845 ± 0.0047.
Sequence TAGCGGTCTC has a switch fluorescence ratio of 1.03 ± 0.032.
Work on GTTAGTGTTG yielded a switch fluorescence ratio of 0.978 ± 0.01.
GACGTGACGA was tested, and the switch fluorescence ratio was 1.15 ± 0.019.
TTTAGGTGTT was tested, and the switch fluorescence ratio was 1.05 ± 0.074.
In the case of GGGACCGTGC, the switch fluorescence ratio is reported as 1.07 ± 0.096.
In the case of AGTGTAAAAA, the switch fluorescence ratio is reported as 1.04 ± 0.078.
With ATGTAACGGG the switch fluorescence ratio was 1.03 ± 0.021.
Sequence AGGTAGGGAA has a switch fluorescence ratio of 0.9928 ± 0.0037.
Sequence GGGGGTTATA has a switch fluorescence ratio of 0.965 ± 0.016.
GTTGCTCTCA gave a switch fluorescence ratio of 1.01 ± 0.049.
With GTGGGGGTCG the switch fluorescence ratio was 0.98 ± 0.075.
Sequence GCTGGTGGGG has a switch fluorescence ratio of 0.964 ± 0.05.
ATCACTTTAT was tested, and the switch fluorescence ratio was 1.38 ± 0.51.
With CAAATAGGCC the switch fluorescence ratio was 1.002 ± 0.0014.
